Tests used:
[1] = biological target: recombinant soluble HCV E1 protein (hepatitis C virus); experiment: ELISA, recombinant E1 captured on GNA lectin; control Fab
[2] = biological target: BSA (Sigma) (UniProt P02769); experiment: ELISA, BSA coated as negative control antigen; control Fab
[3] = biological target: recombinant E1/E2 heterodimer protein (genotype 1a) (hepatitis C virus genotype 1a) (UniProt P26664); experiment: ELISA, E1/E2 heterodimer coated; control Fab
recombinant E1/E2 heterodimer protein (genotype 1a) (hepatitis C virus genotype 1a), sequence (P26664 192-383 limits assumed, chain 1 of 2): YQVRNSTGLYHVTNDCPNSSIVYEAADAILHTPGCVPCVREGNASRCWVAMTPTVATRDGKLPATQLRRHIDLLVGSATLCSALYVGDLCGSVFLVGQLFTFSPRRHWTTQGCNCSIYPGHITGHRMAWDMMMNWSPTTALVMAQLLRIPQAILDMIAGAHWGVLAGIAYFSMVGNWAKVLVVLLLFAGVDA
recombinant E1/E2 heterodimer protein (genotype 1a) (hepatitis C virus genotype 1a), sequence (P26664 384-746 limits assumed, chain 2 of 2): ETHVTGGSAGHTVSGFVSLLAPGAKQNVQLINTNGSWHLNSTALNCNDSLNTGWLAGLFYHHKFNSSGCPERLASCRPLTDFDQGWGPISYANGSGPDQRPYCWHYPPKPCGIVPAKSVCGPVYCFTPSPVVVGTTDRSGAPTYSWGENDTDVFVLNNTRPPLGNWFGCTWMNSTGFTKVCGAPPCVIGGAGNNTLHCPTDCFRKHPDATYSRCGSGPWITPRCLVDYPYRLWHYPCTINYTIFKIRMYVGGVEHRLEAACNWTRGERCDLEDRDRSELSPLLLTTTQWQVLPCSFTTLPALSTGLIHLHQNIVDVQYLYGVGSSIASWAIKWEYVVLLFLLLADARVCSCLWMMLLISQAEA

BSA (Sigma), sequence (P02769 25-607 limits assumed): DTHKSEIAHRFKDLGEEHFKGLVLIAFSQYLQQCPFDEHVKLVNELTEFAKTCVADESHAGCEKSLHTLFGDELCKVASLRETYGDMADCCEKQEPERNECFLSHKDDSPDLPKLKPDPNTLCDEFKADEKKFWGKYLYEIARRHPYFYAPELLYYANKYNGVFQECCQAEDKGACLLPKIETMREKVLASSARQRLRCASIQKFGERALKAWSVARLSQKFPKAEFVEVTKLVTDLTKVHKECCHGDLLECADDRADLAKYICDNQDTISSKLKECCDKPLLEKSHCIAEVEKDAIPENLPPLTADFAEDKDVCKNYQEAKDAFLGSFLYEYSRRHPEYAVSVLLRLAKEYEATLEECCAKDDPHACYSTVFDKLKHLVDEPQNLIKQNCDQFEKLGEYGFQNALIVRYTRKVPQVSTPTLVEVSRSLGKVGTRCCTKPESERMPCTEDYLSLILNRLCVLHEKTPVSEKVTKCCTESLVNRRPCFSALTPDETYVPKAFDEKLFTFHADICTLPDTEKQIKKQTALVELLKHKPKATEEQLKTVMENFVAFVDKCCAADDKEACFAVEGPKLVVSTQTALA

non-specific Fab showed an OD405 nm [1] of 0.2 OD405 nm, an OD405 nm [2] of 0.14 OD405 nm and an OD405 nm [3] of 0.11 OD405 nm.
